This note sets out measurements from IntAct's records for PubMed 20696397.

B1: E3 ubiquitin-protein ligase RING2 (Homo sapiens), Q99496 (parent)
chain: MSQAVQTNGTQPLSKTWELSLYELQRTPQEAITDGLEIVVSPRSLHSELMCPICLDMLKNTMTTKECLHRFCADCIITALRSGNKECPTCRKKLVSKRSLRPDPNFDALISKIYPSRDEYEAHQERVLARINKHNNQQALSHSIEEGLKIQAMNRLQRGKKQQIENGSGAEDNGDSSHCSNASTHSNQEAGPSNKRTKTSDDSGLELDNNNAAMAIDPVMDGASEIELVFRPHPTLMEKDDSAQTRYIKTSGNATVDHLSKYLAVRLALEELRSKGESNQMNLDTASEKQYTIYIATASGQFTVLNGSFSLELVSEKYWKVNKPMELYYAPTKEHK
partner: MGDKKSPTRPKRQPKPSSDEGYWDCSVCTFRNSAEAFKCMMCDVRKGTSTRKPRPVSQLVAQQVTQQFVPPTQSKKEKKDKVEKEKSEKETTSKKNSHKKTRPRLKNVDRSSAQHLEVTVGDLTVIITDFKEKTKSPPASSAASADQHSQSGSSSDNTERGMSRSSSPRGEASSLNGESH
B2: Chromobox protein homolog 7 (Homo sapiens), O95931 (parent)
chain: MELSAIGEQVFAVESIRKKRVRKGKVEYLVKWKGWPPKYSTWEPEEHILDPRLVMAYEEKEERDRASGYRKRGPKPKRLLLQRLYSMDLRSSHKAKGKEKLCFSLTCPLGSGSPEGVVKAGAPELVDKGPLVPTLPFPLRKPRKAHKYLRLSRKKFPPRGPNLESHSHRRELFLQEPPAPDVLQAAGEWEPAAQPPEEEADADLAEGPPPWTPALPSSEVTVTDITANSITVTFREAQAAEGFFRDRSGKF

One assay covers variants of B1. Particulars: with YAF2, Q8IY57-1.
For the variant MSQAVQTNGTQPLSKTWELSLYELQRTPQEAITDGLEIVVSPRSLHSELMCPICLDMLKNTMTTKECLHRFCADCIITALRSGNKECPTCRKKLVSKRSLRPDPNFDALISKIYPSRDEYEAHQERVLARINKHNNQQALSHSIEEGLKIQAMNRLQRGKKQQIENGSGAEDNGDSSHCSNASTHSNQEAGPSNKRTKTSDDSGLELDNNNAAMAIDPVMDGASEIELVFRPHPTLMEKDDSAQTRYIKTSGNATVDALSKYLAVRLALEELRSKGESNQMNLDTASEKQYTIYIATASGQFTVLNGSFSLELVSEKYWKVNKPMELYYAPTKEHK [H258A], the “effect of a mutation on the interaction” value is “disrupting interaction”.
As for MSQAVQTNGTQPLSKTWELSLYELQRTPQEAITDGLEIVVSPRSLHSELMCPICLDMLKNTMTTKECLHRFCADCIITALRSGNKECPTCRKKLVSKRSLRPDPNFDALISKIYPSRDEYEAHQERVLARINKHNNQQALSHSIEEGLKIQAMNRLQRGKKQQIENGSGAEDNGDSSHCSNASTHSNQEAGPSNKRTKTSDDSGLELDNNNAAMAIDPVMDGASEIELVFRPHPTLMEKDDSAQTRYIKTSGNATVDHLSKALAVRLALEELRSKGESNQMNLDTASEKQYTIYIATASGQFTVLNGSFSLELVSEKYWKVNKPMELYYAPTKEHK [Y262A], the “effect of a mutation on the interaction” value was “disrupting interaction”.

In a further assay the parent is B2. Particulars: with ring2_human RNF2, Q99496.
Turning to MELSAIGEQVFAVESIRKKRVRKGKVEYLVKWKGWPPKYSTWEPEEHILDPRLVMAYEEKEERDRASGYRKRGPKPKRLLLQRLYSMDLRSSHKAKGKEKLCFSLTCPLGSGSPEGVVKAGAPELVDKGPLVPTLPFPLRKPRKAHKYLRLSRKKFPPRGPNLESHSHRRELFLQEPPAPDVLQAAGEWEPAAQPPEEEADADLAEGPPPWTPALPSSEVTVTDITANSITVTDREAQAAEGFFRDRSGKF [F234D], the “effect of a mutation on the interaction” value is listed as “disrupting interaction”.
